Here are results for four molecules from patent publication US6468985B1, “Retinoblastoma protein-interacting zinc finger proteins” (The Burnham Institute, priority 1994, dated 2002).

For one test, the target named is E1A 12S (Human adenovirus C serotype 5, UniProt P03255).
In the next test the target is T1, RIZ (Rattus norvegicus, UniProt Q63755).
T1 construct: made in house; host or cells: in vitro transcription/translation (rabbit reticulocyte lysate)
T1 sequence (Q63755 1-318): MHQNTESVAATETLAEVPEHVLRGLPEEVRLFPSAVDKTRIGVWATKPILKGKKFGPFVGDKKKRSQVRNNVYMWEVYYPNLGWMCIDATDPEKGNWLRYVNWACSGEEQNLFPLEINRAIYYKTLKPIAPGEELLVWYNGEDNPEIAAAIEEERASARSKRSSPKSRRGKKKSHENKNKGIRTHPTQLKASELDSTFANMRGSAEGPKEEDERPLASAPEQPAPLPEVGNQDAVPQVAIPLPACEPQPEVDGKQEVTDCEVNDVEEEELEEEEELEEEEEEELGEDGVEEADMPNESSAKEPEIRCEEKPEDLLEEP
Nature of the test: binding of anti-RIZ antiserum / anti-ce1 antibody to RIZ and RIZ truncation mutants.

Another test concerns the target T2, p56EERb (Homo sapiens, UniProt P06400).
T2 construct: p56 Rb: 56 kD fragment of Rb from a.a. position 379-928; made in house; host or cells: E. coli BL21(DE3)pLysS
T2 sequence (P06400 379-928): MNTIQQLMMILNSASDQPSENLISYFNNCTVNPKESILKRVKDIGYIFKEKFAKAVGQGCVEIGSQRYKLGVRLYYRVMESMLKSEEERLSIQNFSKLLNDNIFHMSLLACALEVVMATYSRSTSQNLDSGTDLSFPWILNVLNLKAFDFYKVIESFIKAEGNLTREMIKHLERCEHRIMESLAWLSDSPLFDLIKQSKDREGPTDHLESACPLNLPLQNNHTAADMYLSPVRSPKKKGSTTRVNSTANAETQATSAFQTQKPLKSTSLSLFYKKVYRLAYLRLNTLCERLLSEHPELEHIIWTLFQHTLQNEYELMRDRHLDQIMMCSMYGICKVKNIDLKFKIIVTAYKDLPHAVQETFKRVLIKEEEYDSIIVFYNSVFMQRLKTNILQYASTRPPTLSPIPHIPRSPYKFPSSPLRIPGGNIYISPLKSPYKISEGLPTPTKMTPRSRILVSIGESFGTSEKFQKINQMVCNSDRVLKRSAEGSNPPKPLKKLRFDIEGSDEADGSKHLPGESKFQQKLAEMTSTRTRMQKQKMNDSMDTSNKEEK
Description: cDNA expression library filter screening with p56EERb, binding-specificity control. Particulars: p56EERb preincubated with 5 μM poly-L-lysine or 50 μM T- or K-peptide. How it is done: A rat RIZ cDNA was obtained from a rat neonatal cardiac myocyte λgt11 cDNA expression library (Zhu et al., Mol. Cell Biol., 13:4432 (1993), which is incorporated herein by reference). The library was screened using a 56 kD fragment containing the pocket binding site of Rb and the EE epitope (p56EERb) according to previously described methods (Macgregor et al., Oncogene, 5:451-458 (1991), which is incorporated herein by reference).
For binding-specificity control, p56EERb was preincubated with 5 μM poly-L-lysine (Sigma) or 50 μM T- or K-peptide (Huang et al., supra, 1991) before applying onto filters. T peptide is an 18 residue synthetic peptide derived from residues 101-118 of SV40 large T antigen, while K peptide is the same as T peptide except for a lysine residue substituted for a glutamic acid residue at position 107 of SV40 large T antigen (Huang et al., supra, 1991).
The binding of p56EERb to a clone expressing a RIZ protein was detected using an anti-EE monoclonal antibody obtained as spent culture medium of the anti-EE hybridoma (Walter, supra, 1986) and an alkaline phosphatase conjugated goat anti-mouse IgG antibody specific for mouse immunoglobulin (Promega; Madison Wis.).

For the next test, the target named is T3, 35S-RIZ (1-575)^307-Gly (rat, UniProt Q63755 1-575, 35S label).
T3 construct: In vitro transcribed/translated; also called glycine mutant; cr2 mutant
T3 sequence: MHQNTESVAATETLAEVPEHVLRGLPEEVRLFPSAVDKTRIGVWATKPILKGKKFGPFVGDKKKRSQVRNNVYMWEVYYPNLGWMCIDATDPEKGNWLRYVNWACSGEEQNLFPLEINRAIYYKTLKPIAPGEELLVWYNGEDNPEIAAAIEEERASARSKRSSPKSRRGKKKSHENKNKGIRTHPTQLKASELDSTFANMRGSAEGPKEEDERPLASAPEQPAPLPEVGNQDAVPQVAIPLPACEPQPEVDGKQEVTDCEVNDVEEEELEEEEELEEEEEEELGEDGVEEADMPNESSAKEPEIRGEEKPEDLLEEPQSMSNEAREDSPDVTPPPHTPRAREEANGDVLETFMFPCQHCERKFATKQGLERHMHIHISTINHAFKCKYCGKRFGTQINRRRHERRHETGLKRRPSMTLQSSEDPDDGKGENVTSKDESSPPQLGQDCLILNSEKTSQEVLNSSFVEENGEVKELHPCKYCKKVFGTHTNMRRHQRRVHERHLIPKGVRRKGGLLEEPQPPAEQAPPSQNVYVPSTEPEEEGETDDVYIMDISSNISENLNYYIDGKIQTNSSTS
Nature of the test: immunoprecipitation with anti-Rb antiserum, SDS-PAGE, autoradiography.

Test [1] deals with T4, hypophosphorylated Rb (pRb) from HT1080 cell extract (UniProt P06400 2-928, hypophosphorylated form).
T4 construct: Endogenous protein in a cell lysate; also called Rb from HT1080 cells; fastest migrating forms of Rb
T4 sequence (looked up): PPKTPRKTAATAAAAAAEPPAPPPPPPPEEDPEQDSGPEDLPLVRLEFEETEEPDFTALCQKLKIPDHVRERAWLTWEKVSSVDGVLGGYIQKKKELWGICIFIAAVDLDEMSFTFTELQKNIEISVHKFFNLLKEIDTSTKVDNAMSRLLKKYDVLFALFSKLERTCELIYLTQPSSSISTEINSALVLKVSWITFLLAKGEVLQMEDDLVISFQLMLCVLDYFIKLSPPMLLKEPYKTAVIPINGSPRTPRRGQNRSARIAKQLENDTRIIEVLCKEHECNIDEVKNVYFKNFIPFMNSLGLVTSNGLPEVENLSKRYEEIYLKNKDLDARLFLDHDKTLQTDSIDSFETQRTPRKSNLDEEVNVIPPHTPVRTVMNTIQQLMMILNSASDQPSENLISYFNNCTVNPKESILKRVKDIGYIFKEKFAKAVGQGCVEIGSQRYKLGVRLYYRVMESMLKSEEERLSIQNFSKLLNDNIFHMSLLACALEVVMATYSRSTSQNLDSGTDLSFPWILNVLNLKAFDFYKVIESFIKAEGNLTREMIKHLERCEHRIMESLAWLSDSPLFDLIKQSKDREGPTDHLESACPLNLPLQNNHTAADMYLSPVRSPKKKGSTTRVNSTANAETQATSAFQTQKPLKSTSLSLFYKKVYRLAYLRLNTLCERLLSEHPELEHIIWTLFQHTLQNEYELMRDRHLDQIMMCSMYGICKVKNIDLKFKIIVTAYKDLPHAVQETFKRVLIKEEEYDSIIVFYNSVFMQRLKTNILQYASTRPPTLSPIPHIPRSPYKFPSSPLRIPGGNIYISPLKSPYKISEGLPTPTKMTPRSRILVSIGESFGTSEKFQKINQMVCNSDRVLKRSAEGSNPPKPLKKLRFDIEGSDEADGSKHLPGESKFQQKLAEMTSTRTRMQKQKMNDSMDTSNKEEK
Description: glutathione-agarose pull-down from HT1080 cell extract with 4 ug GST-RIZ; anti-Rb immunoblot.
Description: The cells were grown in DMEM supplemented with 100 fetal calf serum. Cells were lysed in ELB buffer (50 mM HEPES, pH 7.5, 250 mM NaCl, 0.1% NP-40) supplemented with 5 mM EDTA, 50 mM NaF, 1 mM Na orthovanadate, 1 mM of DTT, aprotinin, leupeptin, and PMSF. The lysate was cleared of cell debris by centrifugation at 12,000 rpm for 10 min in a microfuge.

The target of test [2] is 35S-labeled full length RIZ (rat, UniProt Q63755 1-1706, 35S label). Description: GST fusion protein with in vitro translated labeled protein.

E1A 12S, sequence (P03255 1-139, added parts left off): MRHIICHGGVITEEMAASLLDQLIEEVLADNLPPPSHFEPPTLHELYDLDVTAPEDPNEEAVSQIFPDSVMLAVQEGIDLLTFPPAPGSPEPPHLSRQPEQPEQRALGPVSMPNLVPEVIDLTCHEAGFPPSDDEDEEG
Description for E1A 12S: To investigate this relationship further, the anti-RIZ antiserum raised against the GST-RIZ (245-573) fusion protein containing the cr2, ce1 and part of the cr1 motifs, was tested for cross reactivity with E1A. For these experiments, E1A was labeled with ^35S-methionine during in vitro transcription/translation using methods described above.
To further verify binding between anti-RIZ and E1A, the cross reactive antibodies from the anti-RIZ antiserum were purified by affinity chromatography on a column containing E1A 12S protein.
E1A 12S, truncated at residue 223 (E1A223) was produced by generating a PCR fragment of E1A using an upstream SP6 primer (Stratagene) a downstream E1A primer 5′-[sequence] […] The resulting PCR fragment was cloned into pCRSK+, which was used to direct the synthesis of the mutant E1A 12S protein by SP6 in vitro transcription/translation. The full length E1A 12S (E1A243) was produced from vector pGEM1Ad5E1A12S by in vitro transcription/translation as described above for the other vectors.
The regions of RIZ and E1A 12S that contain the ce1 epitope show significant amino acid sequence homology (FIG. 2A). The sequence ^312EDLLEE (SEQ ID NO: 20) in RIZ and the sequence ^224EDLLNE (SEQ ID NO: 21) in E1A are likely sites for the ce1 epitope. To evaluate this possibility, an 11 amino acid peptide encompassing residues 310-320 in RIZ (ce1 peptide) [sequence] […]

With “KPEDLLEEPQS [ce1 peptide, 11 amino acid peptide encompassing residues 310-320 in RIZ]”, the “inhibition of binding between anti-ce1 antibody and 35S-E1A 12S (E1A243)” value in the test with E1A 12S was “inhibited binding”. Also, in the test with RIZ, the “inhibition of binding between anti-ce1 antibody and 35S-RIZ318” value is recorded as “inhibited binding”.

For the molecule poly-L-lysine, the “inhibition of binding of p56EERb to RIZ-expressing clones” value on p56EERb is reported as “maintained their reactivity”.

B1: 56 kD fragment of Rb produced by bacterial expression from p56Rb plasmid (other, UniProt P06400 379-928, looked up)
chain: T2 sequence (P06400 379-928)
notes: range 379-928; Expressed in E. coli; also called 56 kD Rb
B1: the binding result in the test with 35S-RIZ (1-575)^307-Gly is on record as “no binding (tested: 33 nM Rb)”.

B2: purified rat RIZ (a.a. position 215-462) fused C-terminal to glutathionine S-transferase (GST) (other)
chain: PLASAPEQPAPLPEVGNQDAVPQVAIPLPACEPQPEVDGKQEVTDCEVNDVEEEELEEEEELEEEEEEELGEDGVEEADMPNESSAKEPEIRCEEKPEDLLEEPQSMSNEAREDSPDVTPPPHTPRAREEANGDVLETFMFPCQHCERKFATKQGLERHMHIHISTINHAFKCKYCGKRFGTQINRRRHERRHETGLKRRPSMTLQSSEDPDDGKGENVTSKDESSPPQLGQDCLILNSEKTSQEVLN
notes: not shown: glutathione S-transferase
Take B2: the binding result in test [1] is reported as “binds”; in test [2], “no binding”.
